Source: patent publication US20070060521A1 (UNIVERSITY OF SOUTH FLORIDA A PUBLIC CORPORATION OF THE …, published 2007)
Non-standard residues stand in square brackets, D forms with d. No end group written: not given here. pY = N[C@@H](Cc1ccc(OP(=O)(O)O)cc1)C(=O)O

Molecular target: STAT3 with DNA-binding activity in vitro (activated STAT3 dimers)
Experiment: cell-based or functional assay

IC50, Disruption of STAT3 DNA-binding Activity [µM] | Binder
421 | Ac-[pY]-Leu-Lys [Ac-Y*LK (SEQ ID NO:31)]
326 | P[pY]LA [PY*LA (SEQ ID NO:35)]
280 | P[pY]LKTK [PY*LKTK (SEQ ID NO:20)]
212 | Ac-P[pY]LKTK [Ac-PY*LKTK (SEQ ID NO:32)]
365 | A[pY]LK [AY*LK (SEQ ID NO:30)]
156 | Ac-P[pY]LK [Ac-PY*LK (SEQ ID NO:34)]
